Numbering of substitutions follows the chain as printed. Numbers in names are those of the source.
T1: FcγRIIB (UniProt P31994 43-217, limits assumed)
T1 construct: also called CD32B
T1 sequence (looked up): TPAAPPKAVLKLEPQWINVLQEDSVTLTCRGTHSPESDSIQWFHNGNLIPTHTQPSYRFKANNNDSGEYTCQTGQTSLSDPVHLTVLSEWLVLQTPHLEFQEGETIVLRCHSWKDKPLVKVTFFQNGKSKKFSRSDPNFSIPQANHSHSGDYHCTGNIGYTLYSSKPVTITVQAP

T2: FcγRIIB-Fc fusion protein, soluble dimeric: extracellular domain of FcγRIIB fused to the hinge-CH2-CH3 domain … (human, UniProt P31994 43-217, limits assumed)
T2 construct: extracellular domain; also called FcRIIB-Fc; FcR2B; not shown: human IgG2 hinge-CH2-CH3
T2 sequence (looked up): T1 sequence (looked up)

B1: ch4-4-20 V379M (antibody)
chain 1: not shown
chain 2: DVVMTQTPLSLPVSLGDQASISCRSSQSLVHSNGNTYLRWYLQKPGQSPKVLIYKVSNRFSGVPDRFSGSGSGTDFTLKISRVEAEDLGVYFCSQSTHVPWTFGGGTKLEIKRTVAAPSVFIFPPSDEQLKSGTASVVCLLNNFYPREAKVQWKVDNALQSGNSQESVTEQDSKDSTYSLSSTLTLSKADYEKHKVYACEVTHQGLSSPVTKSFNRGEC
B2: ch4-4-20 K334E, T359N, T366S (antibody)
chain 1: EVKLDETGGGLVQPGRPMKLSCVASGFTFSDYWMNWVRQSPEKGLEWVAQIRNKPYNYETYYSDSVKGRFTISRDDSKSSVYLQMNNLRVEDMGIYYCTGSYYGMDYWGQGTSVTVSSASTKGPSVFPLAPSSKSTSGGTAALGCLVKDYFPEPVTVSWNSGALTSGVHTFPAVLQSSGLYSLSSVVTVPSSSLGTQTYICNVNHKPSNTKVDKKVEPKSCDKTHTCPPCPAPELLGGPSVFLFPPKPKDTLMISRTPEVTCVVVDVSHEDPEVKFNWYVDGVEVHNAKTKPREEQYNSTYRVVSVLTVLHQDWLNGKEYKCKVSNKALPAPIEETISKAKGQPREPQVYTLPPSRDELNKNQVSLSCLVKGFYPSDIAVEWESNGQPENNYKTTPPVLDSDGSFFLYSKLTVDKSRWQQGNVFSCSVMHEALHNHYTQKSLSLSPGK
chain 2: B1 chain 2
B3: ch4-4-20 G316D, A378V, D399E (antibody)
chain 1: B2 chain 1 with G317D, E335K, N360T, S367T, A379V, D400E
chain 2: B1 chain 2
B4: ch4-4-20 P247L, N421K (antibody)
chain 1: not shown
chain 2: B1 chain 2
B5: ch4-4-20 E293V, Q295E, A327T (antibody)
chain: EPKSCDKTHTCPPCPAPELLGGPSVFLFPPKPKDTLMISRTPEVTCVVVDVSHEDPEVKFNWYVDGVEVHNAKTKPRVEEYNSTYRVVSVLTVLHQDWLNGKEYKCKVSNKTLPAPIEKTISKAKGQPREPQVYTLPPSREEMTKNQVSLTCLVKGFYPSDIAVEWESNGQPENNYKTTPPVLDSDGSFFLYSKLTVDKSRWQQGNVFSCSVMHEALHNHYTQKSLSLSPGK
B6: ch4-4-20 V348M, K334N, F275I, Y202M, K147T (antibody)
chain: ASTKGPSVFPLAPSSKSTSGGTAALGCLVTDYFPEPVTVSWNSGALTSGVHTFPAVLQSSGLYSLSSVVTVPSSSLGTQTYICNMNHKPSNTKVDKKVEPKSCDKTHTCPPCPAPELLGGPSVFLFPPKPKDTLMISRTPEVTCVVVDVSHEDPEVKINWYVDGVEVHNAKTKPREEQYNSTYRVVSVLTVLHQDWLNGKEYKCKVSNKALPAPIENTISKAKGQPREPQMYTLPPSRDELTKNQVSLTCLVKGFYPSDIAVEWESNGQPENNYKTTPPVLDSDGSFFLYSKLTVDKSRWQQGNVFSCSVMHEALHNHYTQKSLSLSPGK
B7: ch4-4-20 D221E, D270E, V308A, Q311H, P396L, G402D (antibody)
chain: B5 chain with D6E, D55E, V78E, E80Q, V93A, Q96H, T112A, P181L, G187D
B8: ch4-4-20 F243I, V379L, G420V (antibody)
chain 1: B2 chain 1 with F244I, E335K, N360T, S367T, V380L, G421V
chain 2: B1 chain 2
B9: ch4-4-20 K317N, F423-deleted (antibody)
chain: EPKSCDKTHTCPPCPAPELLGGPSVFLFPPKPKDTLMISRTPEVTCVVVDVSHEDPEVKFNWYVDGVEVHNAKTKPREEQYNSTYRVVSVLTVLHQDWLNGNEYKCKVSNKALPAPIEKTISKAKGQPREPQVYTLPPSREEMTKNQVSLTCLVKGFYPSDIAVEWESNGQPENNYKTTPPVLDSDGSFFLYSKLTVDKSRWQQGNVSCSVMHEALHNHYTQKSLSLSPGK
B10: ch4-4-20 T215P, K274N, A287G, K334N, L365V, P396L (antibody)
chain: PEPKSCDKTHTCPPCPAPELLGGPSVFLFPPKPKDTLMISRTPEVTCVVVDVSHEDPEVNFNWYVDGVEVHNGKTKPREEQYNSTYRVVSVLTVLHQDWLNGKEYKCKVSNKALPAPIENTISKAKGQPREPQVYTLPPSRDELTKNQVSVTCLVKGFYPSDIAVEWESNGQPENNYKTTPLVLDSDGSFFLYSKLTVDKSRWQQGNVFSCSVMHEALHNHYTQKSLSLSPGK
B11: ch4-4-20 K288N, A330S, P396L (antibody)
chain: B5 chain with K73N, V78E, E80Q, T112A, A115S, P181L
B12: ch4-4-20 Y319F, P352L, P396L (antibody)
chain: B5 chain with V78E, E80Q, Y104F, T112A, P137L, P181L
B13: ch4-4-20 F243I, V379L (antibody)
chain 1: not shown
chain 2: B1 chain 2

target: T3, FcγRIIIA (UniProt P08637 17-208, limits assumed); test: ELISA
T3 construct: also called CD16A
T3 sequence (P08637 17-208 limits assumed): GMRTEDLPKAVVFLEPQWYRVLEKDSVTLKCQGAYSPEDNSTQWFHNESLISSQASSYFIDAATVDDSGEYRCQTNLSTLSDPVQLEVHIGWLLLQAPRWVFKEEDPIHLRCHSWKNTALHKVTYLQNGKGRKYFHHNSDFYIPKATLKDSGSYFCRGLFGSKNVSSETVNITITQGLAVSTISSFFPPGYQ

First: B1
Second: B2
The “ELISA binding increase vs wt” value of the first is higher: 2 x for the first, 1.5 x for the second.

Compared with B3, B4 is higher in “ELISA binding increase vs wt” value: 1.5 x for the first, 3 x for the second.

Compared with B5, B6 is higher in “ELISA binding increase vs wt” value: 0.4 x for the first, 0.5 x for the second.

In the case of B7, the “ELISA binding increase vs wt” value is reported as 3.6 x.

target: T1, FcγRIIB; test: ELISA

Going from B3 to B8, the “ELISA binding increase vs wt” value falls from 14 x to 3.5 x.

Compared with B6, B9 is higher in “ELISA binding increase vs wt” value: 0.75 x for the first, 7 x for the second.

First: B10
Second: B7
The “ELISA binding increase vs wt” value of the first is higher: 4 x for the first, 0.1 x for the second.

target: T3, FcγRIIIA; test: ELISA; remark: another data set of the same source

Going from B1 to B11, the “ELISA IIIA binding vs wt” value rises from 2 X to 5 X.

B2 and B3 are the same in “ELISA IIIA binding vs wt” value: 1.5 X for the first, 1.5 X for the second.

First: B4
Second: B5
The “ELISA IIIA binding vs wt” value of the first is higher: 3 X for the first, 1.4 X for the second.

For B12, the “ELISA IIIA binding vs wt” value was 3.5 X.

target: T3, FcγRIIIA; test: ELISA; remark: another data set of the same source

B11 was tested, and the “ELISA, OD” value was 1 OD.

target: T4, soluble monomeric FcγRIIIA, the extracellular region of FcγRIIIA joined to the linker-AVITAG sequence (UniProt P08637 17-208, limits assumed); test: BIAcore
T4 construct: extracellular domain; also called FcRIIIA; FcR3A
T4 sequence (P08637 17-208 limits assumed): as above

Going from B1 to B13, the Kd falls from 160 nM to 99.7 nM (1.6-fold). The second binds more tightly here.

B2 and B3 are within 1.5-fold of each other in Kd: 55.2 nM for the first, 72 nM for the second.

First: B4
Second: B12
The Kd of the first is 2-fold lower: 62 nM for the first, 125 nM for the second.

Compared with B1, B13 is 1.6-fold lower in koff: 0.167 s⁻¹ for the first, 0.105 s⁻¹ for the second.

B2 and B3 are within 1.5-fold of each other in koff: 0.128 s⁻¹ for the first, 0.117 s⁻¹ for the second.

B4 gave a koff of 0.108 s⁻¹.

target: T2, FcγRIIB-Fc fusion protein, soluble …; test: BIAcore

Compared with B1, B13 is 1.7-fold higher in Kd: 70 nM for the first, 120 nM for the second.

Going from B2 to B3, the Kd falls from 72 nM to 46 nM (1.6-fold). The second binds more tightly here.

B8 and B4 are within 1.5-fold of each other in Kd: 93.4 nM for the first, 66 nM for the second.

Work on B5 yielded a Kd of 86 nM.

B1 and B13 are within 1.5-fold of each other in koff: 0.1 s⁻¹ for the first, 0.113 s⁻¹ for the second.

Going from B2 to B3, the koff falls from 0.11 s⁻¹ to 0.06 s⁻¹ (1.8-fold).

Compared with B8, B4 is 1.6-fold lower in koff: 0.101 s⁻¹ for the first, 0.065 s⁻¹ for the second.
